According to the Human Domainome abundance scans (Beltran et al. 2025):
± gives the uncertainty stated by the source.

B1: Cyclin-F, residues 28 to 80; numbered along this chain, P41002 (parent)
chain: RNLTILSLPEDVLFHILKWLSVEDILAVRAVHSQLKDLVDNHASVWACASFQE

Variants of: B1
Assay: abundance fitness (aPCA) (normalised: wild type 0, dead -1); higher = more abundant; growth selection in yeast, the domain comes from the species named
Conditions: Homo sapiens
F14E showed an abundance fitness of -0.074 ± 0.13. In the case of F14C, the abundance fitness is reported as -0.162 ± 0.095. Work on F14G yielded an abundance fitness of -0.293 ± 0.082. In the case of F14D, the abundance fitness is reported as -0.762 ± 0.14. In the case of F14A, the abundance fitness is reported as 0.132 ± 0.085. Work on T4I yielded an abundance fitness of -0.866 ± 0.23. T4M showed an abundance fitness of -0.695 ± 0.17. T4R showed an abundance fitness of -0.735 ± 0.1. With T4A the abundance fitness was -0.768 ± 0.13. Variant T4D has an abundance fitness of -0.076 ± 0.11. T4Y gave an abundance fitness of -0.85 ± 0.29. Variant T4S has an abundance fitness of 0.087 ± 0.093. T4E gave an abundance fitness of -0.605 ± 0.15. In the case of T4V, the abundance fitness is reported as -0.997 ± 0.15. T4H showed an abundance fitness of -0.059 ± 0.14. T4L gave an abundance fitness of -0.836 ± 0.13. For T4W, the abundance fitness was -0.65 ± 0.14. T4G showed an abundance fitness of -0.068 ± 0.082. For T4K, the abundance fitness was -0.611 ± 0.22. In the case of T4N, the abundance fitness is reported as -0.046 ± 0.14. Variant T4Q has an abundance fitness of -0.481 ± 0.15. T4C showed an abundance fitness of -0.55 ± 0.17. Variant R1I has an abundance fitness of 0.032 ± 0.34. With R1G the abundance fitness was -0.193 ± 0.12. R1K showed an abundance fitness of 0.091 ± 0.42. In the case of R1V, the abundance fitness is reported as -0.465 ± 0.2. Variant R1C has an abundance fitness of -0.246 ± 0.16. R1S gave an abundance fitness of 0.016 ± 0.15. Work on R1T yielded an abundance fitness of -0.058 ± 0.13. R1W showed an abundance fitness of -0.914 ± 0.28. With R1N the abundance fitness was 0.134 ± 0.27. Variant R1M has an abundance fitness of -0.359 ± 0.31. Variant R1L has an abundance fitness of -0.305 ± 0.44. In the case of R1A, the abundance fitness is reported as -1.04 ± 0.42. Variant S7Q has an abundance fitness of -0.232 ± 0.13. For S7I, the abundance fitness was -0.426 ± 0.2. Work on S7E yielded an abundance fitness of -0.27 ± 0.11. With S7A the abundance fitness was -0.427 ± 0.1. In the case of S7N, the abundance fitness is reported as -0.118 ± 0.13. Work on S7P yielded an abundance fitness of -0.767 ± 0.17. Work on S7V yielded an abundance fitness of -0.647 ± 0.11. Variant S7D has an abundance fitness of 0.101 ± 0.13. Variant S7L has an abundance fitness of -0.647 ± 0.1. With S7C the abundance fitness was -0.316 ± 0.12. S7K gave an abundance fitness of -0.109 ± 0.13. Work on S7H yielded an abundance fitness of -0.242 ± 0.15. In the case of S7Y, the abundance fitness is reported as -0.869 ± 0.22. S7T showed an abundance fitness of -0.381 ± 0.13. In the case of S7W, the abundance fitness is reported as -0.693 ± 0.12. S7M showed an abundance fitness of -0.195 ± 0.14. Work on S7G yielded an abundance fitness of -0.31 ± 0.076. For S7F, the abundance fitness was -0.547 ± 0.14. L3M gave an abundance fitness of -0.276 ± 0.13. Work on L3R yielded an abundance fitness of -0.134 ± 0.077. With L3T the abundance fitness was -0.437 ± 0.15. L3N showed an abundance fitness of -0.337 ± 0.2. For L3H, the abundance fitness was -0.283 ± 0.15. In the case of L3C, the abundance fitness is reported as -0.316 ± 0.094. In the case of L3I, the abundance fitness is reported as -0.112 ± 0.17. In the case of L3K, the abundance fitness is reported as -0.354 ± 0.16. Variant L3A has an abundance fitness of -0.708 ± 0.13. With L3G the abundance fitness was -0.435 ± 0.079. Work on L3F yielded an abundance fitness of -0.078 ± 0.17. Variant L3S has an abundance fitness of -0.09 ± 0.098. Work on L3E yielded an abundance fitness of -0.727 ± 0.16. L3D gave an abundance fitness of -0.598 ± 0.21. L3Y showed an abundance fitness of 0.109 ± 0.18. Variant L3W has an abundance fitness of -0.596 ± 0.1. With L3P the abundance fitness was -0.322 ± 0.13. Variant L3Q has an abundance fitness of -0.863 ± 0.31. With D11A the abundance fitness was 0.028 ± 0.1. For D11I, the abundance fitness was -0.43 ± 0.25. Variant D11S has an abundance fitness of 0.093 ± 0.087. In the case of D11N, the abundance fitness is reported as 0.046 ± 0.091. With D11M the abundance fitness was -0.488 ± 0.16. For D11Q, the abundance fitness was -0.049 ± 0.13. D11H showed an abundance fitness of -0.384 ± 0.15. Variant D11W has an abundance fitness of -0.731 ± 0.14. With D11G the abundance fitness was -0.104 ± 0.082. In the case of D11R, the abundance fitness is reported as -0.099 ± 0.08. D11Y gave an abundance fitness of -0.556 ± 0.22. For D11C, the abundance fitness was -0.18 ± 0.12. Variant D11F has an abundance fitness of -0.823 ± 0.22. In the case of D11V, the abundance fitness is reported as -0.269 ± 0.1. With D11E the abundance fitness was -0.153 ± 0.14. D11P gave an abundance fitness of -0.132 ± 0.16. Work on D11K yielded an abundance fitness of 0.269 ± 0.14. Work on L8M yielded an abundance fitness of -0.407 ± 0.4. Variant L8S has an abundance fitness of -0.635 ± 0.33. In the case of L8N, the abundance fitness is reported as -0.755 ± 0.29. L8Q gave an abundance fitness of -0.925 ± 0.39. Work on L8G yielded an abundance fitness of -0.939 ± 0.23. With L8C the abundance fitness was -0.993 ± 0.38. Variant L8T has an abundance fitness of -0.651 ± 0.35. In the case of L8R, the abundance fitness is reported as -0.833 ± 0.24. In the case of L8V, the abundance fitness is reported as -0.915 ± 0.26. In the case of L8A, the abundance fitness is reported as -0.509 ± 0.31. For L8K, the abundance fitness was -0.744 ± 0.44. For E10D, the abundance fitness was -0.225 ± 0.12. For E10T, the abundance fitness was -0.35 ± 0.12. Variant E10G has an abundance fitness of -0.566 ± 0.096. Work on E10W yielded an abundance fitness of -0.737 ± 0.12. E10N showed an abundance fitness of -0.589 ± 0.19. Work on E10M yielded an abundance fitness of -0.558 ± 0.15. With E10F the abundance fitness was -0.449 ± 0.14. With E10H the abundance fitness was -0.166 ± 0.1. With E10P the abundance fitness was -0.357 ± 0.11. E10L gave an abundance fitness of -0.646 ± 0.098. In the case of E10S, the abundance fitness is reported as -0.233 ± 0.082. For E10R, the abundance fitness was -0.054 ± 0.072. In the case of E10K, the abundance fitness is reported as 0.24 ± 0.14. E10Y showed an abundance fitness of -0.505 ± 0.14. E10C showed an abundance fitness of -0.585 ± 0.15. E10A showed an abundance fitness of -0.208 ± 0.12. With E10I the abundance fitness was -0.576 ± 0.16. For E10V, the abundance fitness was -0.524 ± 0.11. In the case of P9R, the abundance fitness is reported as -0.692 ± 0.088. Variant P9N has an abundance fitness of -0.882 ± 0.33. P9Q showed an abundance fitness of -0.735 ± 0.14. Work on P9E yielded an abundance fitness of -0.646 ± 0.12. For P9S, the abundance fitness was -0.672 ± 0.11. Work on P9D yielded an abundance fitness of -0.541 ± 0.16. For P9F, the abundance fitness was -0.621 ± 0.15. In the case of P9M, the abundance fitness is reported as -1.04 ± 0.21. With P9C the abundance fitness was -0.676 ± 0.15. Work on P9I yielded an abundance fitness of -0.847 ± 0.28. With P9Y the abundance fitness was -0.932 ± 0.18. With P9T the abundance fitness was -0.69 ± 0.14. With P9A the abundance fitness was -0.778 ± 0.11. In the case of P9G, the abundance fitness is reported as -0.413 ± 0.081. Work on P9K yielded an abundance fitness of -0.818 ± 0.15. P9H gave an abundance fitness of -0.949 ± 0.19. In the case of P9V, the abundance fitness is reported as -0.59 ± 0.11. In the case of L13F, the abundance fitness is reported as 0.091 ± 0.28. L13W showed an abundance fitness of -0.204 ± 0.21. With L13M the abundance fitness was -0.138 ± 0.14. For L13Y, the abundance fitness was -0.306 ± 0.37. L13C gave an abundance fitness of -0.933 ± 0.35. Variant L13Q has an abundance fitness of -0.093 ± 0.19. Variant L13D has an abundance fitness of -0.644 ± 0.44. Variant L13T has an abundance fitness of -0.001 ± 0.17. For L13S, the abundance fitness was -0.67 ± 0.2. Variant L13V has an abundance fitness of -0.141 ± 0.14. L13E gave an abundance fitness of -0.81 ± 0.32. For L13K, the abundance fitness was -0.431 ± 0.23. With L13R the abundance fitness was -0.633 ± 0.26. Work on L13G yielded an abundance fitness of -0.692 ± 0.14. Variant V12R has an abundance fitness of -0.909 ± 0.13. For V12G, the abundance fitness was -0.764 ± 0.15. With V12P the abundance fitness was -0.733 ± 0.13. Work on V12C yielded an abundance fitness of -0.343 ± 0.28. Variant V12S has an abundance fitness of -0.85 ± 0.15. In the case of V12N, the abundance fitness is reported as -1.02 ± 0.44. With V12Y the abundance fitness was -0.846 ± 0.21. For V12A, the abundance fitness was -0.816 ± 0.16. Work on V12L yielded an abundance fitness of -0.281 ± 0.096. Variant V12H has an abundance fitness of -0.732 ± 0.28. For V12W, the abundance fitness was -0.851 ± 0.16. In the case of V12T, the abundance fitness is reported as -0.493 ± 0.13. V12D gave an abundance fitness of -0.816 ± 0.21. For V12K, the abundance fitness was -1.07 ± 0.29. For V12F, the abundance fitness was -1.02 ± 0.22. For V12I, the abundance fitness was 0.033 ± 0.093. In the case of V12M, the abundance fitness is reported as -0.924 ± 0.17. V12Q showed an abundance fitness of -0.747 ± 0.15. I5C showed an abundance fitness of -0.692 ± 0.16. I5E showed an abundance fitness of -0.679 ± 0.21.
